The chains are these.
B1: ORF6 protein (SARS-CoV-2), P0DTC6 (parent)
chain: MFHLVDFQVTIAEILLIIMRTFKVSIWNLDYIINLIIKNLSKSLTENKYSQLDEEQPMEID

One test covers variants of B1. The conditions noted are these: with ima5_human KPNA1, P52294.
ima5_human KPNA1, P52294, sequence (P52294 whole entry): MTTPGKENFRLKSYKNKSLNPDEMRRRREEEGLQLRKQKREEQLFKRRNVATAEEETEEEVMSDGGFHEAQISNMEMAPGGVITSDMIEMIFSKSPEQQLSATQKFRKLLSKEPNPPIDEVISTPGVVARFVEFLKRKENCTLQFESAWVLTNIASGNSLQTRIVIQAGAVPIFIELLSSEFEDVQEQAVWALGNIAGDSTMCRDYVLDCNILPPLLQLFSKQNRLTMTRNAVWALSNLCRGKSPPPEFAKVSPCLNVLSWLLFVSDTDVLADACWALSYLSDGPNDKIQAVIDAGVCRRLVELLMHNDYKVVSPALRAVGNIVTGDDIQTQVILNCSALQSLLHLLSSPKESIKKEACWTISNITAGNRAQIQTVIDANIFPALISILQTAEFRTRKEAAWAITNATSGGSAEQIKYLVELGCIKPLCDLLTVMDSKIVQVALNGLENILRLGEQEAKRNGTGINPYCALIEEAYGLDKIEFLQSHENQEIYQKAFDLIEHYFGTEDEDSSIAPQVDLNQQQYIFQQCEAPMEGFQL
For the variant M58R, the “effect of a mutation on the interaction” value is “with no effect”.

In a further test the parent is B1. The conditions noted are these: with ima1_human KPNA2, P52292.
Regarding M58R, the “effect of a mutation on the interaction” value is given as “with no effect”.

The variants in the next test derive from B1. The conditions noted are these: with nup98_human NUP98, P52948.
nup98_human NUP98, P52948, sequence (P52948 whole entry): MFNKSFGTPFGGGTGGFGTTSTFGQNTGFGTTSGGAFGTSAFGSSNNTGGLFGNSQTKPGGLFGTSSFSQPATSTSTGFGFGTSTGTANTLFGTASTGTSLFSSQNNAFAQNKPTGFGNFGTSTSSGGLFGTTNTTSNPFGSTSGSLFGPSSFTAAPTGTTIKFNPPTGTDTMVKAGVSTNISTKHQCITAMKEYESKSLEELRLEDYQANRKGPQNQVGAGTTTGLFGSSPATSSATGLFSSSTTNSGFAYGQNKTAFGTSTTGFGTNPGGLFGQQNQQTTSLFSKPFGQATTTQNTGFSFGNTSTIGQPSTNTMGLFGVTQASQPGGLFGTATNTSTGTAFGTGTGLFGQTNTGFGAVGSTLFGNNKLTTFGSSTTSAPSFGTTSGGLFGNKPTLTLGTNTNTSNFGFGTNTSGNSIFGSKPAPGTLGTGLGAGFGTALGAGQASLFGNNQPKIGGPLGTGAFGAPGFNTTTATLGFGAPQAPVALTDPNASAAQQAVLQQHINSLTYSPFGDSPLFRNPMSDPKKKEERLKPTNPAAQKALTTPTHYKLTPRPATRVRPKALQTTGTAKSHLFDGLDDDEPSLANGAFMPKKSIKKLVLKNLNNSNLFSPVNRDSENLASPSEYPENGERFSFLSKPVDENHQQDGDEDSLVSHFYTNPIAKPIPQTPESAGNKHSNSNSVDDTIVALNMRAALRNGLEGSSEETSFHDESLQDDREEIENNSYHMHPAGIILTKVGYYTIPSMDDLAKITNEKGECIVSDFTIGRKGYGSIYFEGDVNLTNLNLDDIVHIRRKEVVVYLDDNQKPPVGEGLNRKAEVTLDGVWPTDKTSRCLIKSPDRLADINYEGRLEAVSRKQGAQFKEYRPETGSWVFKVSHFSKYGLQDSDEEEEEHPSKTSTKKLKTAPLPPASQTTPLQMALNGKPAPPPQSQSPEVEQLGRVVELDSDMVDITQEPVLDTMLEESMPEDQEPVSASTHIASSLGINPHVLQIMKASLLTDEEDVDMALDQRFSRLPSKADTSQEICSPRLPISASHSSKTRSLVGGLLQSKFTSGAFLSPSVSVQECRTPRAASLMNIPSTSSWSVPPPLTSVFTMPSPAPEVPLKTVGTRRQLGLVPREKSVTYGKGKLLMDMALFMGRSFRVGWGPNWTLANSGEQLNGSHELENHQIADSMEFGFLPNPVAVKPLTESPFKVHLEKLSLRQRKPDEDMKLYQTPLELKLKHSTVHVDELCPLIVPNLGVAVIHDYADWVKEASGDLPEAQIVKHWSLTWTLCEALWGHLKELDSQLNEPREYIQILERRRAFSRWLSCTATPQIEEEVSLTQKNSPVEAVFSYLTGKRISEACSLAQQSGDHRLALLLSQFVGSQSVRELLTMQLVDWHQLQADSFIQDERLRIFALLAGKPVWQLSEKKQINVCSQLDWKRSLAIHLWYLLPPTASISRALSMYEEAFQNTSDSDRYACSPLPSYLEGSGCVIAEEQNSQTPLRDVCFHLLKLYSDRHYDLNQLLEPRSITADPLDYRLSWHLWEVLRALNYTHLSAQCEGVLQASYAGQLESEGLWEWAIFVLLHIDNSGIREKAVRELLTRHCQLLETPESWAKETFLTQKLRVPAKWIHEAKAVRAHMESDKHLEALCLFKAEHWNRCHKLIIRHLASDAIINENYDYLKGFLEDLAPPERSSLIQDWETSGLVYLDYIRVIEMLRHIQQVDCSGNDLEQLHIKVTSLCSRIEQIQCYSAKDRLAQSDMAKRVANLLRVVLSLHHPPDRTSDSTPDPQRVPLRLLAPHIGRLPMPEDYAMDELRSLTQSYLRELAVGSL
On to M58R, for which the “effect of a mutation on the interaction” value is on record as “disrupting interaction strength”.

Values taken from IntAct's records for PubMed 33097660.
